In the data set the test system is CC(=O)N[C@H]1[C@H](Oc2ccc([N+](=O)[O-])cc2)O[C@H](CO)[C@@H](O[C@@H]2O[C@H](CO)[C@@H](O)[C@H](O)[C@H]2NC(C)=O)[C@@H]1O. As to the kind of experiment: purified protein. Format: biochemical, Clostridium paraputrificum. To be noted: 0.1 M citric acid-potassium phosphate pH 5.5, 37 °C.

As a reminder, the Km is the concentration of substrate that gives half-maximal velocity. Broadly, the kcat is the number of substrate molecules converted per active site and unit of time at saturation. Take “crChit62J4 (crude/isolated Chit62J4) (Clostridium paraputrificum)”: under “native enzyme”, the Michaelis constant (Km) amounted to 0.57 mM and the turnover number (kcat) came out at 13.5 s⁻¹.

As for rChit62J4 (Clostridium paraputrificum), where the note is “no added compound”, the Km came to 0.24 ± 0.02 mM and the turnover number (kcat) was 31.5 ± 0.9 s⁻¹.

Turning to “rChit62J4cat (Clostridium paraputrificum)”, where the note is “no added compound”, the Km is 0.19 ± 0.02 mM and the catalytic constant (kcat) was found to be 31.4 ± 0.8 s⁻¹.

The values above are taken from paper PMC8512545, “Chitinase Chit62J4 Essential for Chitin Processing by Human Microbiome Bacterium Clostridium paraputrificum J4” (Molecules, 2021).
